pKd: −log10 of the molar value.

As usually defined, the pKd is −log10 of the Kd, conventionally taken in molar units. Read a low pKd as a large Kd.

In the test the target is yAsf1*^532 (full-length yeast Asf1, residues 1 to 279, labeled at position -1 with Alexa Fluor 532) (S. cerevisiae) (UniProt P32447). As to the kind of experiment: other fluorescence titration; fluorescence quenching: unlabeled histones titrated into 1 nM yAsf1*^532; 20°C; 150 mM KCl, 2 mM MgCl2, 10 mM Tris-HCl pH 7.5, 1% glycerol, 0.05% Brij-35, 0.5 mM TCEP; ligand-depleted binding model.

In turn, “H3/H4^∆94 (Xenopus laevis, H3 C110A and H4 T71C Δ94-102) (from UniProt P84233 1-136; P62799 1-94) (complex)” had a pKd of 9.40.

For the origin of these results see paper PMC3439350.
